# Results: publication PMC10387464 (Signal Transduction and Targeted Therapy, 2023)
# B1: MB.02 Fab (Fab, V domains shown)
# VH: EVQLVQSGAEVKKPGESLKISCKGSGFSFTSYWIGWVRQMPGKGLEWMGIIYPGDSDTRYSPSFQGQVTISADKSISTAYLQWSSLKASDTAMYYCARGGYEDVFDIWGQGTMVTVSS
# VL: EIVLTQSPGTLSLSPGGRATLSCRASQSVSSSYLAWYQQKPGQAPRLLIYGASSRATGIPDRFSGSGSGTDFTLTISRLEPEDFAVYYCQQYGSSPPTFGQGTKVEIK
# Target: Omicron BA.1 spike trimer (SARS-CoV-2 Omicron BA.1 (B.1.1.529), N440K | G446S)
# Assay: cryo-EM structure
# Conditions: both partners purified
binder,measurement,value
B1,stoichiometry N,3 Fabs per S trimer
